From patent US20200200749A1 (published 2020)

B1: BDBV223 (antibody, V domains shown)
VH: QVQLQQWGAGLLKPSETLSLTCAVYGGSFTTTYWNWIRQPPGKGLEWIGEVNYSGNANYNPSLKGRVAISVDTSKNQFSLRLNSVTAADTAIYYCTSRIRSHIAYSWKGDVWGKGTTVTVSS
VL: EIVMTQSPGTLSLSPGERATLSCRASQSVPRNYIGWFQQKPGQAPRLLIYGASSRAAGFPDRFSGSGSGTDFTLTITRLEPEDFAMYYCHQYDRLPYTFGQGTKLEIK
B2: BDBV289 (antibody, V domains shown)
VH: QVQLVQSGAEVKKPGSSVKVSCKASGATFGSDTVTWVRQAPGQGLEWMGGIIPFFGEANYAQRFQGRVTITADKSTNTAYMELSSLRSEDTAVYFCARQINEMATFGEIHYYTYMDVWGQGTLVTVSS
VL: GSELTQDPAVSVALGQTVRITCQGDSLRNYYASWYQQKPRQAPVLVFYGKNNRPSGIPDRFSGSSSGNTASLTISGAQAEDEADYYCNSRDSSSNHLVFGGGTKLTVLS
B3: BDBV324 (antibody, V domains shown)
VH: QVQLVQSGAEVKKPGASVKVSCKTSGYTFTSFEIHWVRQGSGQGLEWMGRMNPKSGDTVSAQKFQGRVTLTRDTSINAAYMELGSLSSEDTAVYYCARGPHVGEVVPGLMAGTYYFPLDVWGQGTLVTVSS
VL: DIQMTQSPSTLSASIGDRVTITCRASQSISRWLAWYQQKPGKAPKLLIYKVSDLQSGVPSRFSGSGYGTEFTLTIGSLQPDDLATYYCQQYDTYPWTFGQGTKLEIK
B4: BDBV270 (antibody, V domains shown)
VH: QVQLQESGPGLVKPSQTLSLTCTVSGASISRGLYYWSWIRQPAGKGLEWIGRIYTSGSINYNPSLKSRVTISVDTSKNQFSLRLSSVIATDTAVYYCVRDAPWGDFLTGYFGFYGMDVWGQGTLVTVSS
VL: DIVMTQSPSSLSASVGDRVTITCRASQSINTYLNWYQQKPGKAPKFLIYAASSLHSGVPSRFSGSGSGTDFTLTINSLQPDDFATYYCQQSFTTPYTFGQGTKLEIK

Tests used:
SUDV GP (recombinant) = target: T1, SUDV GP (recombinant) (SUDV (Sudan ebolavirus), UniProt Q66814 33-650); test: ELISA
T1 chain: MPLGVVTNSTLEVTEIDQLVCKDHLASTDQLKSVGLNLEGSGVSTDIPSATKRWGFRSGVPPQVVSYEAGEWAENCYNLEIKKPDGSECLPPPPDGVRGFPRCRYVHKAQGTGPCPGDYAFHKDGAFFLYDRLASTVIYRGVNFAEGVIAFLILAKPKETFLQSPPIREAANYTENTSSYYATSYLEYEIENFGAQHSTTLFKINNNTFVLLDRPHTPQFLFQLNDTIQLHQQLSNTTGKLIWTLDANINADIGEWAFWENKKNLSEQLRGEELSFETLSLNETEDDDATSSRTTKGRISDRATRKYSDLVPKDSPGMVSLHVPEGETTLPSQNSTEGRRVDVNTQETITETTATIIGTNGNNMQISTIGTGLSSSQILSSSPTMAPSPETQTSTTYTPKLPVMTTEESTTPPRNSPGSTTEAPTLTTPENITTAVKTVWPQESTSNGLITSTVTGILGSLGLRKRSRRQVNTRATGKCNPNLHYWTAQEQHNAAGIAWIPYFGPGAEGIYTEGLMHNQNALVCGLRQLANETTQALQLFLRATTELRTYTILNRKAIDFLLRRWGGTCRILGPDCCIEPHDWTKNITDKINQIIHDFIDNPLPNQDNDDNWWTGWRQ

[1] = target: T2, EBOV GP (recombinant, full-length extracellular domain) (EBOV (Ebola Zaire), UniProt Q05320 33-650); test: ELISA
T2 chain: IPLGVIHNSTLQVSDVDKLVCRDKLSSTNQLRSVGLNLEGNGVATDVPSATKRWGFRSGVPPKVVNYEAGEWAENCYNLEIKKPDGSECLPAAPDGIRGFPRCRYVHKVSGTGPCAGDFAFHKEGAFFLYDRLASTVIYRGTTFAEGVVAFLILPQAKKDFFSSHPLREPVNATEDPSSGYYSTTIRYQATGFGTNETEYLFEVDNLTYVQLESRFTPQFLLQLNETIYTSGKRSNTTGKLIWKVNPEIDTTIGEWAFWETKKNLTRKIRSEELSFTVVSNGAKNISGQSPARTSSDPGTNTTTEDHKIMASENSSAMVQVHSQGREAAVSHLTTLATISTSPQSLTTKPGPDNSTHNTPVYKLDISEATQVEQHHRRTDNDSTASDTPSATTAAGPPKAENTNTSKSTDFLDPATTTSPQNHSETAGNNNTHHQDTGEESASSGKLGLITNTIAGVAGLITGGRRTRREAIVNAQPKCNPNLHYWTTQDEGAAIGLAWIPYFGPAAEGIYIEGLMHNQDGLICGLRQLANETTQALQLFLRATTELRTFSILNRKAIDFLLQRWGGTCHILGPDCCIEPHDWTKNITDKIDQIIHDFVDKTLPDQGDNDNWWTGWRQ

| Binder | EC50 (SUDV GP (recombinant)) [µg/mL] | EC50 [1] [µg/mL] |
| --- | --- | --- |
| B1 | 0.106 | 0.024 |
| B2 | 0.103 | 0.029 |
| B3 | 0.09 | 0.131 |
| B4 | 0.159 | 0.173 |
